Data reported in patent publication US12428633B2, “Inducible dimerization of recombinases” (TRUSTEES OF BOSTON UNIVERSITY, priority 2016, dated 2025).
Entries after “also recorded” stand apart in the source; their conditions may differ.

What was measured:
[1] = system: 2-input BLADE decoder in HEK293FT cells; assay: 4OHT- and ABA-inducible 2-input BLADE decoder; format: cell-based, human; conditions: transient transfection, 4OHT 1 μM, ABA 100 μM
Method: DNA was transfected into the human embryonic kidney cell line (HEK293FT) using a polyethylenimine (PEI) protocol. Cells were plated onto 48-(2504) or 96-well (1004) plates the day prior to transfection (200,000 cells/mL), such that the cells were 50-70% confluent the day of transfection. Cells were kept in a humidified incubator at 37° C. and 5% CO2 and maintained in DMEM medium (Corning) with 10% Heat Inactivated Fetal Bovine Serum (Life Technologies), 50 U.I./mL penicillin/50 μg/mL streptomycin (Corning), 2 mM glutamine (Corning) and 1 mM sodium pyruvate (Lonza). PEI stocks were made from linear polyethylenimine (Polysciences 23966-2) and were dissolved at a concentration of 0.323 g/L in deionized water with the assistance of concentrated hydrochloric acid and sodium hydroxide and then filtered sterilized (0.24 μm). PEI stocks were stored at −80° C. until use and warmed to room temperature prior to usage. […]
(§1) Two days post-transfection and after trypsinization (0.05% Trypsin/0.53 mM EDTA, Corning) and resuspension, all HEK293FT cell populations were analyzed using a Becton Dickinson (BD) LSRFortessa SORP flow cytometer with HTS, except for data in FIG. 5, which were recorded on a BD LSRII. Time-course data was achieved through trypsinization and fixation of cells at particular time points (BD Cytofix) and kept at 4° C. until analyzed through flow cytometry. […]

[2] = system: BUF logic reporters in HEK293FT; assay: Recombinase activity, orthogonality and cross-reactivity on BUF logic reporters; format: cell-based, human; conditions: transient transfection, dose-response (FIG. 8)
Method: FIG. 8A-8C show recombinase cross-reactivity dose-response profile of Cre, Dre, VCre and Vika. FIG. 8A is a summary of intended and unintended recombination of Cre, Dre, VCre and Vika site-specific recombinases.
DNA was transfected into the human embryonic kidney cell line (HEK293FT) using a polyethylenimine (PEI) protocol. Cells were plated onto 48-(2504) or 96-well (1004) plates the day prior to transfection (200,000 cells/mL), such that the cells were 50-70% confluent the day of transfection. Cells were kept in a humidified incubator at 37° C. and 5% CO2 and maintained in DMEM medium (Corning) with 10% Heat Inactivated Fetal Bovine Serum (Life Technologies), 50 U.I./mL penicillin/50 μg/mL streptomycin (Corning), 2 mM glutamine (Corning) and 1 mM sodium pyruvate (Lonza). […]
as §1

Molecule | Leaky recombinase behavior on 2-input BLADE decoder [1] | Cross-reactivity on other recombinases' reporter constructs [2]
split Flp system: split Flp recombinase construct fused to ABA-binding domains ABI and PYL (SEQ ID NO: 38 and 39) (protein) chain 1: MSQFDILCKTPPKVLVRQFVERFERPSGEKIASCAAELTYLCWMITHNGTAIKRATFMSYNTIISNSLSFDIVNKSLQFKYKTQKATILEASLKKLIPAWEFTIIPYNGQKHQSDITDIVSSLQLQFESSEEADKGNSHSKKMLKALLSEGESIWEITEKILNSFEYTSRFTKTKTLYQFLFLATFINCGRFSDIKNVDPKSFKLVQNKYLGVIIQCLVTETKTSVSRHIYFFSARGRIDPLVYLDEFLRNSEPVLKRVNRTGNSSSNKQEYQLLKDNLVRSYNKALKKNAPYPIFAIKNGPKSHIGRHLMTSFLSMKGLTELTNVVGNWSDKRASAVARTTYTHQITAIPDHYFALVSRYYAYDPISKEMIALKDETNPIEEWQHIEQLKGSAEGSGGSGSGSSGGSGTPLYGFTSICGRRPEMEDAVSTIPRFLQSSSGSMLDGRFDPQSAAHFFGVYDGHGGSQVANYCRERMHLALAEEIAKEKPMLCDGDTWLEKWKKALFNSFLRVDSEIGSVAPETVGSTSVVAVVFPSHIFVANCGDSRAVLCRGKTALPLSVDHKPDREDEAARIEAAGGKVIQWNGARVFGVLAMSRSIGDRYLKPSIIPDPEVTAVKRVKEDDCLILASDGVWDVMTDEEACEMARKRILLWHKKNAVAGDASLLADERRKEGKDPAAMSAAEYLSKLAIQRGSKDNISVVVVDLKDYKDDDDKPKKKRKV chain 2: MAPTQDEFTQLSQSIAEFHTYQLGNGRCSSLLAQRIHAPPETVWSVVRRFDRPQIYKHFIKSCNVSEDFEMRVGCTRDVNVISGLPANTSRERLDLLDDDRRVTGFSITGGEHRLRNYKSVTTVHRFEKEEEEERIWTVVLESYVVDVPEGNSEEDTRLFADTVIRLNLQKLASITEAMNYPYDVPDYASGGSGSGSSGGSGTSIRYPAWNGIISQEVLDYLSSYINRRIPKKKRKV | minimal leaky recombinase behavior | –
VCre: full-length tyrosine recombinase (SEQ ID NO: 16), recognizes VloxP (protein) MIENQLSLLGDFSGVRPDDVKTAIQAAQKKGINVAENEQFKAAFEHLLNEFKKREERYSPNTLRRLESAWTCFVDWCLANHRHSLPATPDTVEAFFIERAEELHRNTLSVYRWAISRVHRVAGCPDPCLDIYVEDRLKAIARKKVREGEAVKQASPFNEQHLLKLTSLWYRSDKLLLRRNLALLAVAYESMLRASELANIRVSDMELAGDGTAILTIPITKTNHSGEPDTCILSQDVVSLLMDYTEAGKLDMSSDGFLFVGVSKHNTCIKPKKDKQTGEVLHKPITTKTVEGVFYSAWETLDLGRQGVKPFTAHSARVGAAQDLLKKGYNTLQIQQSGRWSSGAMVARYGRAILARDGAMAHSRVKTRSAPMQWGKDEKD | – | showed cross-reactivity in a dose-dependent manner; also recorded: can recombine Vika's recombination sites
Cre: full-length tyrosine recombinase, recognizes loxP (protein) MSNLLTVHQNLPALPVDATSDEVRKNLMDMFRDRQAFSEHTWKMLLSVCRSWAAWCKLNNRKWFPAEPEDVRDYLLYLQARGLAVKTIQQHLGQLNMLHRRSGLPRPSDSNAVSLVMRRIRKENVDAGERAKQALAFERTDFDQVRSLMENSDRCQDIRNLAFLGIAYNTLLRIAEIARIRVKDISRTDGGRMLIHIGRTKTLVSTAGVEKALSLGVTKLVERWISVSGVADDPNNYLFCRVRKNGVAAPSATSQLSTRALEGIFEATHRLIYGAKDDSGQRYLAWSGHSARVGAARDMARAGVSIPEIMQAGGWTNVNIVMNYIRNLDSETGAMVRLLEDGD | – | showed cross-reactivity in a dose-dependent manner; also recorded: mutually cross-reactive
